# US20230212319A1, “NOVEL ANTIGEN BINDING DOMAINS AND SYNTHETIC ANTIGEN RECEPTORS INCORPORATING THE SAME” (University of Southern California, priority 2020, published 2023)
# B1: 22117 (protein)
# chain: MALPVTALLLPLALLLHAARPQLQLQESGPGLVKPSETLSLTCTVSGDSISSGDYYWGWIRQPPGKGLEWIGHIYYSGVTYYNPSLKSRVTISVDTSRNQFSLKLSSVTAADTAVYYCTREDSSNWRSRGQGTLVTVSSLEIQNPDPAVYQLRDSKSSDKSVCLFTDFDSQTNVSQSKDSDVYITDKCVLDMRSMDFKSNSAVAWSNKSDFACANAFNNSIIPEDTFFPSSDVPCDVKLVEKSFETDTNLNFQNLSVIGFRILLLKVAGFNLLMTLRLWSSRAKRSGSGVKQTLNFDLLKLAGDVESNPGPTSTMALPVTALLLPLALLLHAARPQLQLQESGPGLVKPSETLSLTCTVSGDSISSGDYYWGWIRQPPGKGLEWIGHIYYSGVTYYNPSLKSRVTISVDTSRNQFSLKLSSVTAADTAVYYCTREDSSNWRSRGQGTLVTVSSLESGGGGSFEQVQLQQPGAELVKPGASVKMSCKASGYAFSSYWINWMKQKPGQGLEWIGQIYPGDGDTNYNGKFKGRATLTADTSSSTAYMQLSSLTSEDSAVYFCARSITTVVGCAMDYWGQGTSVTVSSTREDLKNVFPPEVAVFEPSKAEIAHTQKATLVCLATGFYPDHVELSWWVNGKEVHSGVCTDPQPLKEQPALNDSRYCLSSRLRVSATFWQNPRNHFRCQVQFYGLSENDEWTQDRAKPVTQIVSAEAWGRADCGITSASYHQGVLSATILYEILLGKATLYAVLVSALVLMAMVKRKDSRGRAKRSGSGATNFSLLKQAGDVEENPGPSRGHMTEYKPTVRLATRDDVPRAVRTLAAAFADYPATRHTVDPDRHIERVTELQELFLTRVGLDIGKVWVADDGAAVAVWTTPESVEAGAVFAEIGPRMAELSGSRLAAQQQMEGLLAPHRPKEPAWFLATVGVSPDHQGKGLGSAVVLPGVEAAERAGVPAFLETSAPRNLPFYERLGFTVTADVEVPEGPRTWCMTRKPGA
# B2: 22182 (protein)
# chain: MALPVTALLLPLALLLHAARPACEVQLVESGGGVVQPGRSLRLSCAASGFSFSGYGMHWVRQAPGKGLEWVAYISYDGSNKYYADSVKGRFTISRDNSKNTLYLQMNSLRAEDTAVYYCAKDPAWGLRLGESSSYDFDYWGQGTMVTVSSGTGGGGSGGGGSGGGGSEFDIQMTQSPSSLSASVGDRVTITCKASDHINNWLAWYQQKPGQAPKLLIYGATTLETGVPSRFSGSGSGTDYTLTISSLQPEDFATYYCQQSWNTPWTFGQGTKLEIKRLEDLKNVFPPEVAVFEPSEAEISHTQKATLVCLATGFYPDHVELSWWVNGKEVHSGVCTDPQPLKEQPALNDSRYCLSSRLRVSATFWQNPRNHFRCQVQFYGLSENDEWTQDRAKPVTQIVSAEAWGRADCGFTSESYQQGVLSATILYEILLGKATLYAVLVSALVLMAMVKRKDSRGRAKRSGSGATNFSLLKQAGDVEENPGPTSMDWIWRILFLVGAATGAHSFEQVQLQQPGAELVKPGASVKMSCKASGYAFSSYWINWMKQKPGQGLEWIGQIYPGDGDTNYNGKFKGRATLTADTSSSTAYMQLSSLTSEDSAVYFCARSITTVVGCAMDYWGQGTSVTVSSTRIQNPDPAVYQLRDSKSSDKSVCLFTDFDSQTNVSQSKDSDVYITDKCVLDMRSMDFKSNSAVAWSNKSDFACANAFNNSIIPEDTFFPSPESSCDVKLVEKSFETDTNLNFQNLSVIGFRILLLKVAGFNLLMTLRLWSSRAKRSGSGVKQTLNFDLLKLAGDVESNPGPSRGHMTEYKPTVRLATRDDVPRAVRTLAAAFADYPATRHTVDPDRHIERVTELQELFLTRVGLDIGKVWVADDGAAVAVWTTPESVEAGAVFAEIGPRMAELSGSRLAAQQQMEGLLAPHRPKEPAWFLATVGVSPDHQGKGLGSAVVLPGVEAAERAGVPAFLETSAPRNLPFYERLGFTVTADVEVPEGPRTWCMTRKPGA
# B3: 22155 (protein)
# chain: MALPVTALLLPLALLLHAARPACEVQLLESGGGLIQPGGSLRLSCAASGFTFSSHAMTWVRQAPGKGLEWVSAISGSGDYTHYADSVKGRFTISRDNSKNTVYLQMNSLRAEDSAVYYCAKDEDGGSLLGHRGQGTLVTVSSGTGGGGSGGGGSGGGGSEFSYVLTQPPSVSVAPGQTARITCGGNNIGGKSVHWYQQPPGQAPVVVVYDDSDRPSGIPERFSGSNSGNTATLTISRVEAGDEAVYYCQVWDSSSDHVVFGGGTKLTVLLEADVSPKPTIFLPSIAETKLQKAGTYLCLLEKFFPDVIKIHWQEKKSNTILGSQEGNTMKTNDTYMKFSWLTVPEKSLDKEHRCIVRHENNKNGVDQEIIFPPIKTDVITMDPKDNCSKDANDTLLLQLTNTSAYYMYLLLLLKSVVYFAIITCCLLRRTAFCCNGEKSRAKRSGSGATNFSLLKQAGDVEENPGPTSMDWIWRILFLVGAATGAHSGPQVQLQESGGGLAQAGGSLRLSCAASGRTFSMGWFRQAPGKEREFVAAITYSGGSPYYASSVRGRFTISRDNAKNTVYLQMNSLKPEDTAVYYCAANPTYGSDWNAENWGQGTQVTVSSGSGGGGSGGGGSGGGGSFEQLQLQESGPGLVKPSETLSLTCTVSGGSISSSSYFWGWIRQPPGKGLEWIGSIYYSGITYYNPSLKSRVTISVDTSKNQFSLKLSSVTAADTAVYYCARHDGAVAGLFDYWGQGTLVTVSSATRPHTKPSVFVMKNGTNVACLVKEFYPKDIRINLVSSKKITEFDPAIVISPSGKYNAVKLGKYEDSNSVTCSVQHDNKTVHSTDFEVKTDSTDHVKPKETENTKQPSKSCHKPKAIVHTEKVNMMSLTVLGLRMLFAKTVAVNFLLTAKLFFLRAKRSGSGVKQTLNFDLLKLAGDVESNPGPSRGHMTEYKPTVRLATRDDVPRAVRTLAAAFADYPATRHTVDPDRHIERVTELQELFLTRVGLDIGKVWVADDGAAVAVWTTPESVEAGAVFAEIGPRMAELSGSRLAAQQQMEGLLAPHRPKEPAWFLATVGVSPDHQGKGLGSAVVLPGVEAAERAGVPAFLETSAPRNLPFYERLGFTVTADVEVPEGPRTWCMTRKPGA
# B4: 22103 (protein)
# chain: MALPVTALLLPLALLLHAARPDIQMTQSPSSLSASVGDRVTITCKASDHINNWLAWYQQKPGQAPKLLIYGATTLETGVPSRFSGSGSGTDYTLTISSLQPEDFATYYCQQSWNTPWTFGQGTKLEIKRLEGQPKANPTVTLFPPSSEELQANKATLVCLISDFYPGAVTVAWKADGSPVKAGVETTKPSKQSNNKYAASSYLSLTPEQWKSHRSYSCQVTHEGSTVEKTVAPTECSPIKTDVITMDPKDNCSKDANDTLLLQLTNTSAYYMYLLLLLKSVVYFAIITCCLLRRTAFCCNGEKSRAKRSGSGATNFSLLKQAGDVEENPGPTSMDWIWRILFLVGAATGAHSFEQVQLQQPGAELVKPGASVKMSCKASGYAFSSYWINWMKQKPGQGLEWIGQIYPGDGDTNYNGKFKGRATLTADTSSSTAYMQLSSLTSEDSAVYFCARSITTVVGCAMDYWGQGTSVTVSSTRASTKGPSVFPLAPSSKSTSGGTAALGCLVKDYFPEPVTVSWNSGALTSGVHTFPAVLQSSGLYSLSSVVTVPSSSLGTQTYICNVNHKPSNTKVDKRVEPKSCEVKTDSTDHVKPKETENTKQPSKSCHKPKAIVHTEKVNMMSLTVLGLRMLFAKTVAVNFLLTAKLFFLRAKRSGSGVKQTLNFDLLKLAGDVESNPGPSRGHMTEYKPTVRLATRDDVPRAVRTLAAAFADYPATRHTVDPDRHIERVTELQELFLTRVGLDIGKVWVADDGAAVAVWTTPESVEAGAVFAEIGPRMAELSGSRLAAQQQMEGLLAPHRPKEPAWFLATVGVSPDHQGKGLGSAVVLPGVEAAERAGVPAFLETSAPRNLPFYERLGFTVTADVEVPEGPRTWCMTRKPGA
# Tested on: RAJI cells
# Assay: JNG assay, co-culture with RAJI cells
# Type: cell-based
# Conditions: JNG cells expressing construct, co-culture with Raji
# Outline: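 Jurkat NFAT-GFP (JNG) cells stably transduced with SARs by lentivirus, with drug selection where the construct carried a resistance gene, then co-cultured with target cells at E:T ~1:2 for ~4–18 h. % GFP-positive cells measured by FACS against parental JNG; +/- to 5+ correspond to ~5–50% GFP-positive.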
row,Molecule,NFAT-GFP ASSAY: Raji
1,B1,"3+ (refer to approximately 5%, 10%, 20%, 30%, 40% and 50% GFP positive cells)"
2,B2,"5+ (refer to approximately 5%, 10%, 20%, 30%, 40% and 50% GFP positive cells)"
3,B3,"2+ (refer to approximately 5%, 10%, 20%, 30%, 40% and 50% GFP positive cells)"
4,B4,"4+ (refer to approximately 5%, 10%, 20%, 30%, 40% and 50% GFP positive cells)"
